Substitutions are numbered along the chain they refer to. Each block holds one binder with its values, some of them ahead of it.
Columns and labels:
mouse SIRPα-Fc [1] = target: T1, mouse SIRPα-Fc (mouse); assay: BLI Octet, antigen-Fc on biosensor
T1 construct: a signal peptide may be part of the entry; also called Ms; Ms SIRPα-Fc

NOD/SCID mouse SIRPα-Fc = target: T2, NOD/SCID mouse SIRPα-Fc (mouse (NOD/SCID)); assay: BLI Octet, antigen-Fc on biosensor
T2 construct: a signal peptide may be part of the entry; also called NOD/SCID Ms SIRPα-Fc

mouse SIRPα on cells = target: T3, mouse SIRPα on cells (mouse, UniProt P97797 32-513); assay: cell binding, Ms SIRPα-CHO-K1 cells, 100 nM antibody
T3 construct: whole, on cells; also called mouse SIRPα-CHO-K1; Ms SIRPα-CHO-K1
T3 sequence (looked up): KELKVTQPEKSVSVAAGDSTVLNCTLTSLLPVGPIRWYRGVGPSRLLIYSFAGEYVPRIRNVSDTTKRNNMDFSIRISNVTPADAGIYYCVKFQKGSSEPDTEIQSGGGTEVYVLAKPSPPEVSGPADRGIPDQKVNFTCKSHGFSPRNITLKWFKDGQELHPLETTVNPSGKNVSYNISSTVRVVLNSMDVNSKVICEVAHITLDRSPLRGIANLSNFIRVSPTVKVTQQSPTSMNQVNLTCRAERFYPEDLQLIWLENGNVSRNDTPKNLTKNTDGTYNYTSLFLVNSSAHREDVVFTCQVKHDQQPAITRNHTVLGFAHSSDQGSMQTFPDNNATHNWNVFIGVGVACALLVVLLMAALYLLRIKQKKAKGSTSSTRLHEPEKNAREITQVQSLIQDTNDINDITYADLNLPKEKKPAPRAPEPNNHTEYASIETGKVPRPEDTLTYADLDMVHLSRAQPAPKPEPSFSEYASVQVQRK

human SIRPα on cells = target: T4, human SIRPα on cells (human, UniProt P78324 31-504); assay: cell binding, Hu SIRPα-CHO-K1 cells, 100 nM antibody
T4 construct: whole, on cells; also called human SIRPα-CHO; Hu SIRPα-CHO-K1

[2] = target: T5, human SIRPα v6-Fc (SIRPα6 extracellular domain fused to human IGHG1_Fc) (human, UniProt P78324 31-373; P0DOX5 223-449 = IgG part); assay: BLI Octet, antigen-Fc on biosensor;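 also: antigen captured on the biosensor tip and then immersed in solutions of the test antibodies, which act as the analyte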
T5 construct: as m38; also called V6 (e.g. SIRPα6)

cyno SIRPα-Fc = target: T6, cyno SIRPα-Fc (cynomolgus); assay: BLI Octet, antigen-Fc on biosensor;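 also: antigen captured on the biosensor tip and then immersed in solutions of the test antibodies, which act as the analyte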
T6 construct: a signal peptide may be part of the entry

[3] = target: T7, human SIRPα v1-Fc (SIRPα1 extracellular domain fused to human IGHG1_Fc) (human, UniProt P78324 31-373; P0DOX5 223-449 = IgG part); assay: BLI Octet, antigen-Fc on biosensor;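 also: antigen captured on the biosensor tip and then immersed in solutions of the test antibodies, which act as the analyte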
T7 construct: also called V1 (e.g. SIRPα1); SIRPα V1: DLN

[4] = target: T8, human SIRPα v3-Fc (SIRPα3 extracellular domain fused to human IGHG1_Fc) (human, UniProt P78324 31-373; P0DOX5 223-449 = IgG part); assay: BLI Octet, antigen-Fc on biosensor;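 also: antigen captured on the biosensor tip and then immersed in solutions of the test antibodies, which act as the analyte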
T8 construct: as m38; also called V3 (e.g. SIRPα3)

mouse SIRPα-Fc [5] = target: T1, mouse SIRPα-Fc; assay: BLI Octet, antigen-Fc on biosensor; remark: listed apart in the source
Target sequence in this assay (chain, as listed by the source limits assumed): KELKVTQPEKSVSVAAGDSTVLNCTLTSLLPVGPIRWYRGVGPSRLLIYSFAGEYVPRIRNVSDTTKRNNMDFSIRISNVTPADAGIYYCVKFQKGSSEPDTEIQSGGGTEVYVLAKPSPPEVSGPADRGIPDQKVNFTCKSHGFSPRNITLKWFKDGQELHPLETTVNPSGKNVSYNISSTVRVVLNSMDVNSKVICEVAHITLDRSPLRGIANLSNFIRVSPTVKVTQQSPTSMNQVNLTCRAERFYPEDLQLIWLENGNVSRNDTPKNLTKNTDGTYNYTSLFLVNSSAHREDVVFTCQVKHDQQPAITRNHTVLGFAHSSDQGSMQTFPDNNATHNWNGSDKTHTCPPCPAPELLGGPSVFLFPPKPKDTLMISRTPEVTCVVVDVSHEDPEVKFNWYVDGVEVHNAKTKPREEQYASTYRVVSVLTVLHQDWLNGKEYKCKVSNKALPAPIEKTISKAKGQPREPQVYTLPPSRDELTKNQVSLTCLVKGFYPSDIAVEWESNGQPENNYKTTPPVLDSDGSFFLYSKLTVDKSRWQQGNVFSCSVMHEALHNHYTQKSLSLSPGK

human SIRPγ-Fc = target: T9, human SIRPγ-Fc (human); assay: BLI Octet, antigen-Fc on biosensor
T9 construct: a signal peptide may be part of the entry

[6] = target: T10, human SIRPα v4-Fc (SIRPα4 extracellular domain fused to human IGHG1_Fc) (human, UniProt P78324 31-373; P0DOX5 223-449 = IgG part); assay: BLI Octet, antigen-Fc on biosensor
T10 construct: as m38; also called V4 (e.g. SIRPα4)

human SIRPβ-Fc = target: T11, human SIRPβ-Fc (human); assay: BLI Octet, antigen-Fc on biosensor
T11 construct: a signal peptide may be part of the entry

[7] = target: T12, human SIRPα v2-Fc (SIRPα2 extracellular domain fused to human IGHG1_Fc) (human, UniProt P78324 31-373; P0DOX5 223-449 = IgG part); assay: BLI Octet, antigen-Fc on biosensor
T12 construct: as m38; also called V2 (e.g. SIRPα2); SIRPα V2:ESE

[8] = target: T13, human SIRPα v5-Fc (SIRPα5 extracellular domain fused to human IGHG1_Fc) (human, UniProt P78324 31-373; P0DOX5 223-449 = IgG part); assay: BLI Octet, antigen-Fc on biosensor
T13 construct: as m38; also called V5 (e.g. SIRPα5)

[9] = target: T14, cynomolgus SIRPα on cells (cynomolgus, UniProt P78324 31-373 (human entry)); assay: cell binding, Cyno SIRPα-CHO-K1 cells, 100 nM antibody
T14 construct: also called cyno SIRPα-CHO; Cyno SIRPα-CHO-K1; not shown: Transmembrane and cytoplasmic region of cynomolgus SIRPα
T14 chain: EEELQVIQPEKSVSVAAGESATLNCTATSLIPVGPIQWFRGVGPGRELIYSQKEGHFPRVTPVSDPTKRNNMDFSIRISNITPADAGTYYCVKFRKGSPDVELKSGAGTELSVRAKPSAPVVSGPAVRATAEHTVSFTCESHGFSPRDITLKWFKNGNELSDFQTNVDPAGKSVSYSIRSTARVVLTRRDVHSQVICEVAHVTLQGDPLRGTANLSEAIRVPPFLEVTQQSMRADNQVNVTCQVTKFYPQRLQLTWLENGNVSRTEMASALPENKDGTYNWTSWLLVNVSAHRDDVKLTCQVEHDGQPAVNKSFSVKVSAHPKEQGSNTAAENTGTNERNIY

T2 sequence (chain, as listed by the source limits assumed): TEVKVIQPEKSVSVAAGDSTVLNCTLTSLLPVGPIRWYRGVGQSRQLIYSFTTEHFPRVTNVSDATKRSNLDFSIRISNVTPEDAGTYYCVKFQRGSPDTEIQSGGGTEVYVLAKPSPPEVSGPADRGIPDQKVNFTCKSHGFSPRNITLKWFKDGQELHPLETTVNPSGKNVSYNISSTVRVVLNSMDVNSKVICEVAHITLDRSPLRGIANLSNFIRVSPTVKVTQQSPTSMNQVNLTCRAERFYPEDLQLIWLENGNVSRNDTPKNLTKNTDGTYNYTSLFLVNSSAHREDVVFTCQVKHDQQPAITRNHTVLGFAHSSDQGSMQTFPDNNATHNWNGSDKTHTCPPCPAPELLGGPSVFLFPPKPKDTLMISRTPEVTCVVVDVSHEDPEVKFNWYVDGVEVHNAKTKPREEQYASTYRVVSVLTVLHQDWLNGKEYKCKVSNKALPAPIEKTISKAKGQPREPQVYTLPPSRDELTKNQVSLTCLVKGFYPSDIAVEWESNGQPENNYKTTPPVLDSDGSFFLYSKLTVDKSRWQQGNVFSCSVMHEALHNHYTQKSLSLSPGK

Kd (mouse SIRPα-Fc [1]): 17.3 nM
koff (mouse SIRPα-Fc [1]): 0.00373 s⁻¹
kon (mouse SIRPα-Fc [1]): 220000 M⁻¹ s⁻¹
Kd (NOD/SCID mouse SIRPα-Fc): 152 nM
koff (NOD/SCID mouse SIRPα-Fc): 0.0228 s⁻¹
kon (NOD/SCID mouse SIRPα-Fc): 150000 M⁻¹ s⁻¹
fold increase over background (100 nM) (mouse SIRPα on cells): 449 fold
B1: SIRPAB-17 (antibody, human IgG1, kappa, V domains shown)
VH: QVQLQESGPGLVKPSQTLSLTCTVSGGSISSGGYYWSWIRQHPGKGLEWIGAIYYSGPIYYNPSLKSRVTISVDTSKNQFSLKLSSVTAADTAVYYCAREGYHSGMDVWGQGTTVTVSS
VL: DIQMTQSPSSLSASVGDRVTITCQASQDISNYLNWYQQKPGKAPKLLIYDASNLATGVPSRFSGSGSGTDFTFTISSLQPEDIATYYCQQFAYLPWTFGGGTKVEIKR

fold increase over background (100 nM) (human SIRPα on cells): 2650 fold
Kd [2]: 1.56 nM
koff [2]: 0.00182 s⁻¹
kon [2]: 1.17e+06 M⁻¹ s⁻¹
Kd (cyno SIRPα-Fc): 18.8 nM
koff (cyno SIRPα-Fc): 0.0212 s⁻¹
kon (cyno SIRPα-Fc): 1.13e+06 M⁻¹ s⁻¹
Kd [3]: 0.714 nM
koff [3]: 0.000757 s⁻¹
kon [3]: 1.06e+06 M⁻¹ s⁻¹
Kd [4]: 0.53 nM
koff [4]: 0.000515 s⁻¹
kon [4]: 980000 M⁻¹ s⁻¹
binding result (mouse SIRPα-Fc [5]): no binding
Kd (human SIRPγ-Fc): 1.37 nM
koff (human SIRPγ-Fc): 0.00161 s⁻¹
kon (human SIRPγ-Fc): 1.17e+06 M⁻¹ s⁻¹
Kd [6]: 7.69 nM
koff [6]: 0.00777 s⁻¹
kon [6]: 1.01e+06 M⁻¹ s⁻¹
Kd (human SIRPβ-Fc): 2.79 nM
koff (human SIRPβ-Fc): 0.00284 s⁻¹
kon (human SIRPβ-Fc): 1.02e+06 M⁻¹ s⁻¹
Kd [7]: 23 nM
koff [7]: 0.0185 s⁻¹
kon [7]: 810000 M⁻¹ s⁻¹
Kd [8]: 4.75 nM
koff [8]: 0.00462 s⁻¹
kon [8]: 970000 M⁻¹ s⁻¹
fold increase over background (100 nM) [9]: 2300 fold
B2: SIRPAB-9 (antibody, human IgG1, kappa, V domains shown)
VH: QVQLVQSGAEVKKPGASVKVSCKASGYTFGGYGISWVRQAPGQGLEWMGWISAYGGETNYAQKLQGRVTMTTDTSTSTAYMELRSLRSDDTAVYYCAREAGSSWYDFDLWGRGTLVTVSS
VL: DIQMTQSPSSVSASVGDRVTITCRASQGISSWLAWYQQKPGKAPKLLIYAASNLQSGVPSRFSGSGSGTDFTLTISSLQPEDFATYYCQQGASFPITFGGGTKVEIKR

fold increase over background (100 nM) (human SIRPα on cells): 1170 fold
Kd [2]: 0.38 nM
koff [2]: 0.000491 s⁻¹
kon [2]: 1.28e+06 M⁻¹ s⁻¹
Kd (cyno SIRPα-Fc): 4.89 nM
koff (cyno SIRPα-Fc): 0.00683 s⁻¹
kon (cyno SIRPα-Fc): 1.4e+06 M⁻¹ s⁻¹
Kd [3]: 0.25 nM
koff [3]: 0.000345 s⁻¹
kon [3]: 1.4e+06 M⁻¹ s⁻¹
Kd [4]: 0.21 nM
koff [4]: 0.000261 s⁻¹
kon [4]: 1.24e+06 M⁻¹ s⁻¹
binding result (mouse SIRPα-Fc [5]): no binding
Kd (human SIRPγ-Fc): 0.85 nM
koff (human SIRPγ-Fc): 0.00123 s⁻¹
kon (human SIRPγ-Fc): 1.45e+06 M⁻¹ s⁻¹
Kd [6]: 1.93 nM
koff [6]: 0.00267 s⁻¹
kon [6]: 1.38e+06 M⁻¹ s⁻¹
Kd (human SIRPβ-Fc): 0.34 nM
koff (human SIRPβ-Fc): 0.000477 s⁻¹
kon (human SIRPβ-Fc): 1.4e+06 M⁻¹ s⁻¹
Kd [7]: 1.06 nM
koff [7]: 0.00132 s⁻¹
kon [7]: 1.25e+06 M⁻¹ s⁻¹
Kd [8]: 1.58 nM
koff [8]: 0.00178 s⁻¹
kon [8]: 1.13e+06 M⁻¹ s⁻¹
fold increase over background (100 nM) [9]: 1070 fold
B3: SIRPAB-10 (antibody, human IgG1, kappa, V domains shown)
VH: B2 VH with G30T, G33P, S52Y, E57N
VL: B2 VL

Source: US20200102387A1 (CELGENE, published 2020)
